Assay results: the nanobody polyreactivity screen of Harvey et al. (2022)

test: yeast display, Sf9 membrane polyspecificity reagent, FACS + sequencing; frameworks hold sequencing errors
Outline: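 Using colony PCR, genes from sorted yeast display clones were amplified, then sequenced on MiSeq at 2 × 250 and filtered by CDR length. The clones had been stained with 10% biotinylated, detergent-solubilized Sf9 membrane reagent for 1 hour at 4 °C and sorted by FACS into low and high (top ~1%) gates on anti-HA and streptavidin fluorescence. Polyreactivity labels come from the gate of origin.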

| Sequence | polyreactivity (PSR sort gate) |
| --- | --- |
| QVQLVESGGGLVQAGGSLRLSCAASGSIWHKAMGWYRQAPGKERELVASSTNYADSVKGRITISRDNAKNTVYLQMNSLKPEDTAVYYCALEQGVNRNHDYWGQGTQVTVSS | low polyreactivity |
| QVQLVESGGGLVQAGGSLRLSCAASGRTFGKYAMGWYRQAPGKERELVAAITTRVVITYYADSVKGRFTISRDTAKNTVYLQMNSLKPEDTAVYYCAADPEKIYRPFNHYYYWGQGTQVTVSS | low polyreactivity |
| QVQLVESGGGLVQAGGSLRLSCAASGRIFNQYGMGWYRQAPGKERELVAAIRSGDSTNYADSVKGRFTISRDNAKNTVYLQMNSLKPEDTAVYYCARDFSPGSSDPKASISFDHWGQGTQVTVSS | low polyreactivity |
| QDQLVESGGGLVQAGGSLRLICAASGLIFGFYAMGWYRQAPGKERELVAAINTGGITYYADSVKGRFTISRDNAKYTVYLQMNSLKPEDTAVYYCNKDSHISTAYDYWGQGTQVTVSS | low polyreactivity |
| QVQLVESGGGLVQAGGSLRLSCAASGFTFRAYAMGWSRQAPGKERELVAAISTGGGSTYYADSVKGRFTISRDNAKNTVYLQMNSLKPEDTAVYYCNALPQRRYYYWGQGTQVTVSS | high polyreactivity |
| QVQLVESGGGLVQAGGSLRLSCAASGSIFVEYAMGWYRQAPGKERELVASITWSSTSTYYADSVKGRFTISRDNAKNTVYLQMNSLKPEDTAVYYCNTEDYQYAPYEYDYWGQGTQVTVSS | low polyreactivity |
| QVQLVESGGGLVQAGGSLRLSCAASGRIFDINAMGWYIQAPGKERELVAAINYNGSSTYYADSVKGRFTISRDNAKNTVYLQKNSLKPEDTAVYYCATVQVDVYTYDYWGQGTKVTVSS | high polyreactivity |
| QVQLVESGGGLVQAGGSLRLSCAASGIIFDSYAMGWYRQAPGKERELVAAITSDSGRTYYADSVKGRFTISRDNAKKTVYLQMNSLKPEYTAVYYFAKRWDGPYDYWGQGTQVTVSS | low polyreactivity |
| QVQLVESGGGLVQAGGSLRLSCAASGRTFYYYAMGWYRQAPGKERELVAAIRWRGGRTYADSVKGRFTISRDNAKNTVYLQMNSLKQEDTAVYYCNAGFHYPSTYWIYYSGGNYWGQGTQVTVSS | high polyreactivity |
| QVQLVESGGVLVQARVSLRLSCAASGLTIYYYAMGWYRQAPGQERELVAAITWRGGSTYYADSVKGRFTISRDNEKNTVYLQMISLKPEVTAVYYCAADPGPYGYYYWGLGTQVTVSS | low polyreactivity |
| QVHLVESGGGLVQAGGILRLSCPASGQTFWAYAMGWYRQAPGKERELVAAISWRGGSTYYADSVKGRFTISRDNAKNTVYLQMNSLKPEDTAVYYCAAQYLYYGGRRYDFWGQGTQVTVSS | high polyreactivity |
| QVQLVESGGGLVQAGGRLRLSCAASVFTYKSYAMVWYRQAPGKERELVASIDKSTGNTFYADSVKGRFTISRDNAKNTVYLQMNSLKPEDTAVYYCAVDLLRSESHSKHIIYDYWGQGTQVTVSS | low polyreactivity |
| QDQLVESRGGLVQAGGSLRISCAASGSPFYRNAKGWNTQAPGKERELVATISTGGVSTYYADSVKGRFTISRDNAKNTVYLQMNSLKPEDTAVYYCAQRTVYLSNLDYWGQGTQVTVTS | low polyreactivity |
| QVQLVESGGGLVQAGGSLRLSCAASGSIFEQYAMGWYRQAPGKERELVAGINWSTGSTYYADSVKGRFTISRDNAKNTVYLQMNSLKPEDTAVYYCAAEVAGALSDYDYWGQGTQVNVSS | low polyreactivity |
| QVQLVESGGGLVQAGGSLRLSCAASGSTFNSYTMGWSRQAPGEERELVAAITWSGGRTYYADSVKGRFTISRDNAKNTVYLQMNSLKPEATAVYYCAKDRVGEMYYWGQGTQVTVSS | low polyreactivity |
| QVQLVESGGGLVQAGGSLRLSCAASGGIFFPNAMGWYRQAPGKERELGAAISWSAGSTYYADSVKGRFTISRDNAKNTVYLQMNSLKPEDTAVYYCAAAGSNYTVWYGYYYWGQGTQVTVSS | low polyreactivity |
| QVQLVESGGGLVQAGGSLRLSCAASGSTFKYYAMGWSRQAPGKERELVAAISYRGGRTYYADSVKGRFTISRDNAKNTVYLQMNSLKPEDTAVYYCPAVKPYYIQYQGSAGYDYWGQGTQVTVSS | high polyreactivity |
| QVQHVESGGGLVQAGGSLRLSCAASGLIFSWTAMGWYRQAPGKERELVASISYSGGRTYYADSVKGRFTISRDNAKNTVYLQMNSLKPEDTAVYYCAADTNATTDPEMDYWGQGTQVTVSS | low polyreactivity |
| QVQLVESGGGLVQAGASLRLSCAASGSTFYYYAMGWYRQAPGKERELVAAITYRGGSTYYADSVKGRFTISRDNAKNTDFLQMNSLKPEDPAVYYCAADIVTGFISGPGYVYWGQGTQVTVSS | high polyreactivity |
| QVQLVESGGGLVQAGGSLRLSCAASGRIYGFNTMGWYRQAPGKERELVAAITTSGVSTYYADSVKGRFTISRDNAKNTVYLQMNSLKPEDTAVYYCAARWYRTGPYKRRDYWGQGTQVTVSS | high polyreactivity |
| QVQLVESGGGLVKAGGSLRLSCAASGLIFKLNAMGWYRQSPGKERELVAAIRASTGSTYYADSVKGRFTISRDNAKNTVYLQMNSLKPEDTAVYYCAVSLRWYFFLMDYWGQGTQVTVSS | high polyreactivity |

| Sequence | polyreactivity (PSR sort gate) |
| --- | --- |
| QVQLVESGGGLVQAGGSLRLSCAASGSIFDVYTMGWYRQAPGKERELVAAISQSTGSTYYAASVKGRFTISRDNAKNTVYLQMNSLIPEDTAVYYCNAKFRFVTYKTPYVFWGQVTQVTVSS | low polyreactivity |
| QVQLVESGGGLVQAGGSLRLSCAASGITFYGNAMGWYRQAPGKERELVAAITASGGRTYYADSVKGRFTISRDNAKNTVYLQMNSLKPEDTAVYYCAAKKATVVYRMEYWGQGTQVTVSS | high polyreactivity |
| QVQLLESGGGLVQAGGSLRLSCAASGSIFRGYAMGWYRKAPGKERELVAAINWSGSSTYYADSVKGRFTISRDNAKKTVYLQMNSLKPEDTAVYYCARVYYNRNLGGDYWGQGTQVTVSS | low polyreactivity |
| QVQLVESRGFLVQAGGSLRLSCAAYGSSFFTYAMGWYRQAPRKERELVAGINWSGGSTYADSVKGRFTMSRDNAKNTVYLQMNSLKPEDTAVYFCAAKYYSERSRYHYWGQGTQVTVSS | low polyreactivity |
| QVQLVESGVGLVQAGGSLRLSCAASGRIFAFYTMGWYRQAPGKERELVAASSTRGDSTYYADSVKGRFTISRDNAKNTVYLQMNSLKAEDTAVYYCAKSRQTSGRVRFDYWGQGTQVTVSS | low polyreactivity |
| QVQLVESGGGLVQAGGSLRLSCAASGSTFWYYTMGWYRPAPGKERELVAGITSGGSTYYADSVKGRFTISRDYANNTVYLQMNSLKPEDTAVYYCTFYWYNYWGQGTQVTVSS | high polyreactivity |
| QVQLVESGGGLVQAGGSLRLSCAASGRTFDSNAMGWYRQAPGKERELVAAISGSGDTTYYADSVKGRFTISRDNAKNTVYLQMNSLKPEDTAVYYCAARWGRSSGGGDYWGQGTQVTVSS | low polyreactivity |
| QVQLVESGGGLVQAGGSLRLSCAASGSIFDYNTMGWYRQAPGKERELVAAISSNGGSTYYADSVKGRFTISRDNAKNTVYLQMNSRNPEDTAVYYCAVSIYVYHLDLEYWGQGTQVTVSS | low polyreactivity |
| QVQLVESGGGLVQAGGSLRESCAASGRIFYGNAMGCYRQAPVKERELVAAISSGTSTNYADSVKGRFTISRDNAKNTVYLEMNSLKPEDTGVYYCAAGSYSRYLYSLYFDFDYWGQGTQVTVSS | low polyreactivity |
| QVQLVESGGGLVQAGGSLRLSCAASGFTFYGYAMGRYRQAPGKERELVAAITFRGDRTYYADSVKGRFTISRDNAKNTVYLQMNSLKPEDTAVYYCAAERPSGWYSDLSLYIGRRGYWGQGTQVTVSS | low polyreactivity |
| QVQLVESGGGLVQAGGSLRLSCAASGRTFARYAMGWYRQAPGKERELVAVISRTGSTYYADSVKGRFTISRDNAKNTVYLQMNSLKPEDTAVYYCATVYYYLAYGWSYSDMDYWGQGTQVTVSS | high polyreactivity |
| QVQLVESGGGLVQAGGSLRLSCAASGRTFGFNVMGWYRQAPGKERELVAAISWSGGSTYYADSVKGRFTISRDNAKNTVYLQLNSLKPADTAVYYCNKRYVHRYGYWGQGTQVTVSS | low polyreactivity |
| QVQLVESGGGLVQAGGSLRLSCAASGFIFYYYAMGWYRQAPGKVRELVAGITATGGSTYYADSVKGRFTISRDNAKNTVYLQMNSLKPEDTAVYYCAAEHGRRATYTWWVIYDYLGQGTQVTVSS | low polyreactivity |
| QVQLVKSGGGLVQAGGSLRLSCAASGSTFYNAMGWYRQAPGKERELVAAISIGGSTYYADSVKGRFTISRDNAKNTVYLQMNSLKPEDTAVYYCAAVWYTSRQKYDYWGQGTQVTVSS | low polyreactivity |
| QVQLVESGGGLVQAGGSLRLSCAASGTTFDVYAMGWSRQAPGKERELVAAITSGGTTNYADSVKGRFTISRDNAKNPVFFQMNSLKPEDTAVYYCAKDSRNVYWDYGYWGQGTQVSVSS | low polyreactivity |
| QVQLVESGGGLVQAGGSLRLSCAASGRIFGRYAMGWYRQAPGKERELVASITRRGGSTYYADSVKGRFTISRDNAKNTVYLQMNSLKPEDTAVYYCAAGGFSWEGDSWGQGTQVTVSS | high polyreactivity |
| QVQLVESGGVLVQAGGSLRLSCAASGFIFYSYDMGWYRQAPGKERELDAAIRSDGSTYYADTVKGRFTISRDNAKNTVYLQMYSLKPEDTAVYDCAAKYGVRYWHYYSWTNDYWGQGTQVTVSS | low polyreactivity |
| QVQLVESGGGLVQAGGSLRLSCAASGFILSHYVMGWYRPAPGKERELVATIRNVGSTKYADSVKGRFTISRDNAKNTVYLQMNSLKPEDTAVYYCNARRWEGYYEFNYWGQGTQVTVSS | low polyreactivity |
| QDQLVESGGGLVQAGGSLRLSCAASGRIFGSYAMGWYRQAPGKERELVAAISIGGRTYYADSVKGRFTISRDNAKNTVYLQMNSLKPEDTAVYYCNAPAYYWRHYVYDSGYDYWGQGTQVTVSS | low polyreactivity |
| QVQLVESGGGLVQAGGSLRLSCAASGITFFAYAMGWYRQPPGKERELVAAISSGGSTNYADSVKGRFTISRDNAKNTVYLQMNSLKPEDTAVYYCAAVRSDLGEEGYAGYVYWGQGTQVTVSS | low polyreactivity |
